Values joined by “and” are separate entries in the source; they are usually repeats but may differ in a detail not shown here. Identical values can stand only once.
B1: CEACAM6 (carcinoembryonic antigen-related cell adhesion molecule 6) on the surface of human tumor cell lines (receptor)
chain: KLTIESTPFNVAEGKEVLLLAHNLPQNRIGYSWYKGERVDGNSLIVGYVIGTQQATPGPAYSGRETIYPNASLLIQNVTQNDTGFYTLQVIKSDLVNEEATGQFHVYPELPKPSISSNNSNPVEDKDAVAFTCEPEVQNTTYLWWVNGQSLPVSPRLQLSNGNMTLTLLSVKRNDAGSYECEIQNPASANRSDPVTLNVLYGPDVPTISPSKANYRPGENLNLSCHAASNPPAQYSWFINGTFQQSTQELFIPNITVNNSGSYMCQAHNSATGLNRTTVTMITVSG
notes: whole, on cells; also called CEACAM6 antigen; NCA
B2: AFAIKL2 antibody (single-domain camelid antibody fragment) (VHH)
VHH: DVQLQASGGGVVQPGGSLRLSCAAHDPIFDKNLMGWGRQAPGKQREYVATISGSGGTNYASSVEGRFTISRDNAKKTVYLQMNDLKPEDTAVYYCNSAFAIWGQGTQVTVSS
notes: Expressed in E. coli BL21 (DE3) pT7-7; also called AFAIKL2-tag; native single domain antibody

Legend:
[1] = molecular target: T1, L-DOS47 (anti-CEACAM6-urease conjugate); AFAIKL2 antibody conjugated to Jack bean urease through the SIAB … (Jack bean (Canavalia ensiformis), UniProt P07374 1-840, primary amines linked through the SIAB linkage to urease cysteines); activation sites Lys76, Met1 (N-terminal amine), Lys44, Lys32; cysteine thiols linked through the SIAB linkage to AFAIKL2; …); test: whole-cell binding assay, ZR-75-30 cells
T1 construct: Chemical conjugate, not a fusion; Hexameric urease (six ~91 kDa subunits) carries 0-4 AFAIKL2 per subunit; In the ECL assays it was labelled with ruthenium-NHS-ester (Sulfo-Tag); also called antibody-urease conjugate; AFAIKL2-urease
T1 sequence (P07374 whole entry, chain 1 of 2, the tested form may be a part): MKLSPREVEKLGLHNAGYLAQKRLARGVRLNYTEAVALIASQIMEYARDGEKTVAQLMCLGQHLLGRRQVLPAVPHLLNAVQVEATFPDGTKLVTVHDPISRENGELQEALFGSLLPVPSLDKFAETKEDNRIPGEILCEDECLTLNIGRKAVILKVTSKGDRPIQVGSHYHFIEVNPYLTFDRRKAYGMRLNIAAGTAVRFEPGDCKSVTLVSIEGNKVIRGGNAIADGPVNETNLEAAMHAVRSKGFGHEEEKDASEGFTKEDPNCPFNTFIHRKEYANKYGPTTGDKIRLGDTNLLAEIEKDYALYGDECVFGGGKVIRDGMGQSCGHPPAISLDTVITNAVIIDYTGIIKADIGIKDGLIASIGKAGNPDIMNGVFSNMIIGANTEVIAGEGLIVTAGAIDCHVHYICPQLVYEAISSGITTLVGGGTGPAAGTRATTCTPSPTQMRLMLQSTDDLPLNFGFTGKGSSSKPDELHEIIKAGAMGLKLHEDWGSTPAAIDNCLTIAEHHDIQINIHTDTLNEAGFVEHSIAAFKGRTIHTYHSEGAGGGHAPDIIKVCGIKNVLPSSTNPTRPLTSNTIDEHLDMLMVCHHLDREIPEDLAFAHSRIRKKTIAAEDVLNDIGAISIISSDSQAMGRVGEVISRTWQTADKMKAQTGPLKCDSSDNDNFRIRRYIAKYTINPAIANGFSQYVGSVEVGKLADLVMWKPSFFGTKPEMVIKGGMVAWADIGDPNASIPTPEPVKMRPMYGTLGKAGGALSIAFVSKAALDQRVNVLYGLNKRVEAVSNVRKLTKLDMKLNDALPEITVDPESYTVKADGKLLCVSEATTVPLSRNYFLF
T1 sequence (VHH, as listed by the source limits assumed, chain 2 of 2): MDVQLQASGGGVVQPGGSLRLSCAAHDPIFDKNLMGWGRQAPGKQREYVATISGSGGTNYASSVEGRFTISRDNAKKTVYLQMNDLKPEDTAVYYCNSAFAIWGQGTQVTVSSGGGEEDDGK

[2] = molecular target: T2, DOS47 (Jack bean urease, unconjugated) (Jack bean (Canavalia ensiformis), UniProt P07374 1-840); test: whole-cell binding assay (ammonia read-out) on BxPC-3, Capan-1, ZR-75-30, LS174T and MDA-MB231 cells
T2 construct: Purified from jack bean; hexamer of six identical subunits; also called HPU; high purity urease
T2 sequence (P07374 whole entry): as the sequence (P07374 whole entry, chain 1 of 2, the tested form may be a part) above

[3] = molecular target: B1; test: cell-based ECL competition; unlabelled competitor against L-DOS47-tag (1 µg/mL) on BxPC-3 cells

| Binder | binding result [1] | binding result [2] | IC50 [3] |
| --- | --- | --- | --- |
| B1 | binds | no binding |  |
| B2 |  |  | ~20 µg/mL and ~1.55 µM |

Source: US20180000963A1 (HELIX BIOPHARMA, published 2018)
